Data as given in PMC6797079.

T1: NIS D237A, cerulean- or citrine-tagged, Q92911
T1 chain: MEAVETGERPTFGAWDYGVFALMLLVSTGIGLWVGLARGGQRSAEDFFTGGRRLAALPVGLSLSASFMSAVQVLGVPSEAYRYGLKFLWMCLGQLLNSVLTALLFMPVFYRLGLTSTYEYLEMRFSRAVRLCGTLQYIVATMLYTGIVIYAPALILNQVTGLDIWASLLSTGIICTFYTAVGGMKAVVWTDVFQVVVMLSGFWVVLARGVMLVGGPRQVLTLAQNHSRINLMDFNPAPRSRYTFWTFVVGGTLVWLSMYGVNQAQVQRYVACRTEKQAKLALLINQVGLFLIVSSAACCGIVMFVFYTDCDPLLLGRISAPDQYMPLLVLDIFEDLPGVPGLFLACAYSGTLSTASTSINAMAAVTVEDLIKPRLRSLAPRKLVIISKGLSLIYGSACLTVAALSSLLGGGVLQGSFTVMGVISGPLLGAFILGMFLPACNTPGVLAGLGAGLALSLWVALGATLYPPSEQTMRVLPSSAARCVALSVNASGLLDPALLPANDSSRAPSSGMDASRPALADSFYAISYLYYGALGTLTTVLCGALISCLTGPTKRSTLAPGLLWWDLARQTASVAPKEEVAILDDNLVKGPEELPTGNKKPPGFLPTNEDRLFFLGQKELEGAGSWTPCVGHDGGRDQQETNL

T2: NIS T243A, cerulean- or citrine-tagged, Q92911
T2 chain: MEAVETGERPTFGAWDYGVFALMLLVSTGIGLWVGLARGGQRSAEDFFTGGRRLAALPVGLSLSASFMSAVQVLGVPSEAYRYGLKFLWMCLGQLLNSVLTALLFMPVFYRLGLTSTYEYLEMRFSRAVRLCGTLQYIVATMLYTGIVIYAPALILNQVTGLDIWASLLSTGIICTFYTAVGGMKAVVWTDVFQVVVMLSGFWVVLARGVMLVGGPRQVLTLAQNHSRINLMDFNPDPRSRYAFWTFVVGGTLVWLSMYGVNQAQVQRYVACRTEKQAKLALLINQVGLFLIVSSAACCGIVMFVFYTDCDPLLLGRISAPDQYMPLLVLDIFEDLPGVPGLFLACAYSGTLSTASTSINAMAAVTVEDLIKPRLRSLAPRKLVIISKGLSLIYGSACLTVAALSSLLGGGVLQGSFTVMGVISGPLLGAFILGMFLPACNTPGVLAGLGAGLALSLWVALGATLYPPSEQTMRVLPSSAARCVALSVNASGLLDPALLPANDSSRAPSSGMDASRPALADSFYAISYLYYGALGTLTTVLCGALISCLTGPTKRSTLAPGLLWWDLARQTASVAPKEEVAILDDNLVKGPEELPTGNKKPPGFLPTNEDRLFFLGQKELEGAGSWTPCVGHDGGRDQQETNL

T3: NIS Y242A, cerulean- or citrine-tagged, Q92911
T3 chain: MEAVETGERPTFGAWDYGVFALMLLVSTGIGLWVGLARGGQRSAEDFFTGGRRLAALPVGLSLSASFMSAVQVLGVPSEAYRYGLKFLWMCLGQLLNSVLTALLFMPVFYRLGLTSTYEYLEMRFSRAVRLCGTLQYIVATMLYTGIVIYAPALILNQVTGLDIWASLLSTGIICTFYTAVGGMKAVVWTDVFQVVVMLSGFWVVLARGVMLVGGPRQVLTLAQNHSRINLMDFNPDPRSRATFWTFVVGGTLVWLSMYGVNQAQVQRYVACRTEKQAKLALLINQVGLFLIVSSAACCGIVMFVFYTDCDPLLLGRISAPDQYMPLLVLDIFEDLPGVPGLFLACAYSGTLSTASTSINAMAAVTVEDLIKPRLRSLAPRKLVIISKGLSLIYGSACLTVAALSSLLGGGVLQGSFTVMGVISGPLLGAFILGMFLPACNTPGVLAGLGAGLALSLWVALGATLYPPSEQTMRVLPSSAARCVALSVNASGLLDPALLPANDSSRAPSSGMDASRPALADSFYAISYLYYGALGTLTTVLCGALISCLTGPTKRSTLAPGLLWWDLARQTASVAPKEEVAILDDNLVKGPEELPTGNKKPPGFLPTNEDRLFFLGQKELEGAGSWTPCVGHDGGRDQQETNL

B1: sodium/iodide symporter (NIS), wild type, cerulean- or citrine-tagged, Q92911 Cer:A525F; Cit:D237A (protein)
chain: MEAVETGERPTFGAWDYGVFALMLLVSTGIGLWVGLARGGQRSAEDFFTGGRRLAALPVGLSLSASFMSAVQVLGVPSEAYRYGLKFLWMCLGQLLNSVLTALLFMPVFYRLGLTSTYEYLEMRFSRAVRLCGTLQYIVATMLYTGIVIYAPALILNQVTGLDIWASLLSTGIICTFYTAVGGMKAVVWTDVFQVVVMLSGFWVVLARGVMLVGGPRQVLTLAQNHSRINLMDFNPDPRSRYTFWTFVVGGTLVWLSMYGVNQAQVQRYVACRTEKQAKLALLINQVGLFLIVSSAACCGIVMFVFYTDCDPLLLGRISAPDQYMPLLVLDIFEDLPGVPGLFLACAYSGTLSTASTSINAMAAVTVEDLIKPRLRSLAPRKLVIISKGLSLIYGSACLTVAALSSLLGGGVLQGSFTVMGVISGPLLGAFILGMFLPACNTPGVLAGLGAGLALSLWVALGATLYPPSEQTMRVLPSSAARCVALSVNASGLLDPALLPANDSSRAPSSGMDASRPALADSFYFISYLYYGALGTLTTVLCGALISCLTGPTKRSTLAPGLLWWDLARQTASVAPKEEVAILDDNLVKGPEELPTGNKKPPGFLPTNEDRLFFLGQKELEGAGSWTPCVGHDGGRDQQETNL
B2: sodium/iodide symporter (NIS), wild type, cerulean- or citrine-tagged, Q92911 Cer:Q471A; Cit:T243A (protein)
chain: MEAVETGERPTFGAWDYGVFALMLLVSTGIGLWVGLARGGQRSAEDFFTGGRRLAALPVGLSLSASFMSAVQVLGVPSEAYRYGLKFLWMCLGQLLNSVLTALLFMPVFYRLGLTSTYEYLEMRFSRAVRLCGTLQYIVATMLYTGIVIYAPALILNQVTGLDIWASLLSTGIICTFYTAVGGMKAVVWTDVFQVVVMLSGFWVVLARGVMLVGGPRQVLTLAQNHSRINLMDFNPDPRSRYTFWTFVVGGTLVWLSMYGVNQAQVQRYVACRTEKQAKLALLINQVGLFLIVSSAACCGIVMFVFYTDCDPLLLGRISAPDQYMPLLVLDIFEDLPGVPGLFLACAYSGTLSTASTSINAMAAVTVEDLIKPRLRSLAPRKLVIISKGLSLIYGSACLTVAALSSLLGGGVLQGSFTVMGVISGPLLGAFILGMFLPACNTPGVLAGLGAGLALSLWVALGATLYPPSEATMRVLPSSAARCVALSVNASGLLDPALLPANDSSRAPSSGMDASRPALADSFYAISYLYYGALGTLTTVLCGALISCLTGPTKRSTLAPGLLWWDLARQTASVAPKEEVAILDDNLVKGPEELPTGNKKPPGFLPTNEDRLFFLGQKELEGAGSWTPCVGHDGGRDQQETNL
B3: sodium/iodide symporter (NIS), wild type, cerulean- or citrine-tagged, Q92911 Cer:A525F; Cit:Y242A (protein)
chain: MEAVETGERPTFGAWDYGVFALMLLVSTGIGLWVGLARGGQRSAEDFFTGGRRLAALPVGLSLSASFMSAVQVLGVPSEAYRYGLKFLWMCLGQLLNSVLTALLFMPVFYRLGLTSTYEYLEMRFSRAVRLCGTLQYIVATMLYTGIVIYAPALILNQVTGLDIWASLLSTGIICTFYTAVGGMKAVVWTDVFQVVVMLSGFWVVLARGVMLVGGPRQVLTLAQNHSRINLMDFNPDPRSRYTFWTFVVGGTLVWLSMYGVNQAQVQRYVACRTEKQAKLALLINQVGLFLIVSSAACCGIVMFVFYTDCDPLLLGRISAPDQYMPLLVLDIFEDLPGVPGLFLACAYSGTLSTASTSINAMAAVTVEDLIKPRLRSLAPRKLVIISKGLSLIYGSACLTVAALSSLLGGGVLQGSFTVMGVISGPLLGAFILGMFLPACNTPGVLAGLGAGLALSLWVALGATLYPPSEQTMRVLPSSAARCVALSVNASGLLDPALLPANDSSRAPSSGMDASRPALADSFYFISYLYYGALGTLTTVLCGALISCLTGPTKRSTLAPGLLWWDLARQTASVAPKEEVAILDDNLVKGPEELPTGNKKPPGFLPTNEDRLFFLGQKELEGAGSWTPCVGHDGGRDQQETNL
B4: sodium/iodide symporter (NIS), wild type, cerulean- or citrine-tagged, Q92911 Cer:Q471A; Cit:Y242A (protein)
chain: MEAVETGERPTFGAWDYGVFALMLLVSTGIGLWVGLARGGQRSAEDFFTGGRRLAALPVGLSLSASFMSAVQVLGVPSEAYRYGLKFLWMCLGQLLNSVLTALLFMPVFYRLGLTSTYEYLEMRFSRAVRLCGTLQYIVATMLYTGIVIYAPALILNQVTGLDIWASLLSTGIICTFYTAVGGMKAVVWTDVFQVVVMLSGFWVVLARGVMLVGGPRQVLTLAQNHSRINLMDFNPDPRSRYTFWTFVVGGTLVWLSMYGVNQAQVQRYVACRTEKQAKLALLINQVGLFLIVSSAACCGIVMFVFYTDCDPLLLGRISAPDQYMPLLVLDIFEDLPGVPGLFLACAYSGTLSTASTSINAMAAVTVEDLIKPRLRSLAPRKLVIISKGLSLIYGSACLTVAALSSLLGGGVLQGSFTVMGVISGPLLGAFILGMFLPACNTPGVLAGLGAGLALSLWVALGATLYPPSEATMRVLPSSAARCVALSVNASGLLDPALLPANDSSRAPSSGMDASRPALADSFYAISYLYYGALGTLTTVLCGALISCLTGPTKRSTLAPGLLWWDLARQTASVAPKEEVAILDDNLVKGPEELPTGNKKPPGFLPTNEDRLFFLGQKELEGAGSWTPCVGHDGGRDQQETNL

Columns and labels:
Experiment in all cases: FRET
Settings in all cases: chain shown with the change, n = 2, minimum of 20 cells analyzed in each n, read off a plot
[1] = target: T1, NIS D237A, cerulean- or citrine-tagged, …
[2] = target: T2, NIS T243A, cerulean- or citrine-tagged, …
[3] = target: T3, NIS Y242A, cerulean- or citrine-tagged, …

| Binder | response ([3]; HeLa cells, parent: est. 15) | response ([3]; SW1736 cells, parent: est. -10) | further results |
| --- | --- | --- | --- |
| B1 |  |  | response ([1]; HeLa cells, parent: est. 15): 50; response ([1]; SW1736 cells, parent: est. -10): -180 |
| B2 |  |  | response ([2]; HeLa cells, parent: est. 15): -100; response ([2]; SW1736 cells, parent: est. -10): -330 |
| B3 | 120 | -50 |  |
| B4 | -100 | -220 |  |
